According to PMC3485042:

Target: IhfAB (integration host factor) (UniProt P0A6X7+P0A6Y1)
Assay: DNase I footprinting
Details: 25 mM Tris-HCl pH 7.5, 50 mM KCl, 6.25 mM MgCl2, 10% glycerol, 1 mM DTT, 30 min room temperature; then 2.5 mM CaCl2 and 5 mM MgCl2 added for DNase I (1 min)

Chain of UniProt P0A6X7 (P0A6X7 whole entry, chain 1 of 2): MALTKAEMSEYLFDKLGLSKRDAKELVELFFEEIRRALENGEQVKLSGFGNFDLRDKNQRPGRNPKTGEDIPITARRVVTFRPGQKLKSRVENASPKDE
Chain of UniProt P0A6X7 (P0A6Y1 whole entry, chain 2 of 2): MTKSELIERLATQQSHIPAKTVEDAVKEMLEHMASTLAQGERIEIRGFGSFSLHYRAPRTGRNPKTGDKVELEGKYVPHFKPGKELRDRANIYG

TCTGGTTTGGTTTTGTTTTGCGGGTTAAAAGATCGTTTAAATCAATATTTACAACATAAAAAACTAAATTTAACTTATTGCGTGAAGAGTATTTCCGGGCCGGAAGCATATATCCAGGGGCCCGACAGAAGGGGGAAACAT (double strand) [papB promoter region (141 bp PCR product)]
binding: binds
